{
  "source": "patent US20250250297A1",
  "about": "“CO-ASSEMBLED PEPTIDE GRANULES FOR INTRACELLULAR PROTEIN DELIVERY” (University of Florida Research Foundation, Incorporated, priority 2022, published 2025)",
  "molecules": {"B1": {"name": "mCATCH(+) peptide, Ac-QQKPKPKPKQQ-Am (peptide)", "peptide": "Ac-QQKPKPKPKQQ-NH2", "notes": "Proline residues replace the phenylalanine residues of CATCH(+); also called mutant of CATCH(+)"}, "B2": {"name": "CATCH(-) peptide, Ac-EQEFEFEFEQE-Am (peptide)", "peptide": "Ac-EQEFEFEFEQE-NH2", "notes": "Synthetic anionic variant of Q11; also called CATCH(6-); CATCH (6-)"}, "B3": {"name": "CATCH(+) peptide, Ac-QQKFKFKFKQQ-Am (peptide)", "peptide": "Ac-QQKFKFKFKQQ-NH2", "notes": "Synthetic cationic variant of Q11; also called CATCH(4+); CATCH (4+)"}},
  "key": {"[1]": {"conditions": "aqueous media; cited from earlier work"}, "cells": {"system": "cells", "assay": "Delivery of granules comprising three co-assembling peptides; FACS sorting and NanoLuciferase activity", "assay_type": "cell-based", "conditions": "for delivery into cells via granules of three co-assembling peptides: granules with CATCH(6+) and two distinct CATCH(6−) fusion peptides", "protocol": "Therein, the ability of cells to take up granules comprising three co-assembling peptides (e.g., a CATCH(6+) and two distinct CATCH(6−) fusion peptides comprising different fluorescent or colorimetric markers) was tested. […] Subsequent fluorescent-activated cell sorting (FACS) procedures were used to sort GFP-positive cells."}, "[2]": {"assay": "Protein incorporation into macroscopic hydrogels (GFP retention under excess 1×PBS)", "assay_type": "physicochemical", "protocol": "Macroscopic Hydrogel Formation. A 12 mM stock solution of CATCH(−) was prepared by dissolving dry peptide in 1×PBS and adjusting the pH to ˜7.6 with ammonium bicarbonate (Fisher). A 12 mM stock solution of CATCH(+) was prepared by dissolving dry peptide in 1×PBS and adjusting the pH to ˜7.2 with hydrochloric acid (0.5 N Fisher). CATCH peptide stock solutions were combined at a 1:1 (v/v) ratio in a 0.2 mL glass vial (Thermo), and the vial was gently swirled for 2 min until the hydrogel formed. The hydrogel was stained with red food coloring to aid visualization. Hydrogel images were recorded using a digital still camera.\nProtein Incorporation into Macroscopic Hydrogels. […] Immediately after hydrogel formation, fluorescence was visualized by placing the glass vials on a SafeImager 2.0 transilluminator (Invitrogen) and recording images with a digital still camera. […] At various time points, fluorescence in the buffer supernatant was visualized by placing the glass vials on a SafeImager 2.0 transilluminator (Invitrogen) and recording images with a digital still camera. At the endpoint, buffer supernatant was carefully removed by decanting and fluorescence was visualized by placing the glass vials on a SafeImager 2.0 transilluminator (Invitrogen) and recording images with a digital still camera."}, "[3]": {"assay": "Granule formation with molar excess of positive peptide: effect of concentration, ion content and pH", "assay_type": "physicochemical", "conditions": "molar excess of CATCH(6+) relative to CATCH(6−)-GFP", "protocol": "This example describes the effect on granule formation of using positive peptides in molar excess relative to negative peptides. Samples comprising molar excess of positive peptide (e.g., CATCH(6+)) relative to negative peptide (e.g., CATCH(6−)-GFP) were prepared and granule formation was measured after peptide co-assembly (see FIG. 61). […] Therein, the effect of sample ion content on granule formation was tested. Samples comprised 2 mM CATCH(6+) or CATCH(4+) and 30 μM CATCH(6−)-GFP."}, "cells in vitro": {"system": "cells in vitro", "assay": "Granule uptake compared to cell-penetrating peptide (L17E and Pep-1) uptake; CATCH(6+) titration; cell count", "assay_type": "cell-based"}, "[4]": {"target": "T1, mCATCH(-) peptide, Ac-EQEPEPEPEQE-Am", "T1 construct": "Proline residues replace the phenylalanine residues of CATCH(-); also called mutant of CATCH(-)", "T1 peptide": "Ac-EQEPEPEPEQE-NH2", "assay": "ThT fluorimetry, kinetic analysis"}, "[5]": {"target": "B1", "assay": "ThT fluorimetry, equimolar mixture in 1x PBS", "protocol": "(§1) Thioflavin T (ThT) Assay. A ThT stock solution containing 0.8 mg/mL of thioflavin T (Acros) in 1× phosphate-buffered saline (PBS) (137 mM NaCl, 2.7 mM KCl, 10 mM Na₂HPO₄ and 1.8 mM KH₂PO₄, pH 7.4) was filtered through a 0.22 μm syringe filter (Millex), and further diluted 1:10 with 1×PBS to create a working solution. Peptide samples were mixed with the ThT working solution at a 1:10 (v/v) ratio, added to a black 96-well plate (Corning), and analyzed with a Molecular Devices SpectraMax M3 spectrophotometer (excitation 450, emission 482 nm). All samples were run in triplicate, with the mean and standard deviation of these samples reported."}, "[6]": {"target": "the molecule itself", "assay": "TEM; circular dichroism also showed predominantly random coil when incubated alone"}, "[7]": {"target": "T1, mCATCH(-) peptide, Ac-EQEPEPEPEQE-Am", "assay": "ThT fluorimetry, equimolar mixture in 1x PBS", "protocol": "as §1"}},
  "note": "No end group written: not given here.",
  "data": [
    {"molecule": "Ac-QQKFQFQFEQQ-Am (Ac-QQKFQFQFEQQ-NH2) [Q11]", "values": [
      {"measurement": "concentration at which peptide self-assembles into β-sheet nanofibers", "setting": "[1]", "value": "~10", "unit": "µM"}
    ]},
    {"molecule": "CATCH(6−)-NanoLuciferase: CATCH(6−) fusion with NanoLuciferase (EQEFEFEFEQE; not fully specified (C-terminus); also: fusion with NanoLuciferase, not in chain)", "values": [
      {"measurement": "NanoLuciferase activity in sorted GFP-positive cells", "setting": "cells; after FACS, granules with CATCH(6−)-GFP and CATCH(6−)-NanoLuciferase", "value": "high levels"},
      {"measurement": "delivery into cells via granules of three co-assembling peptides", "setting": "cells", "value": "successfully delivered into cells"}
    ]},
    {"molecule": "CATCH(6−)-mRuby: CATCH(6−) fusion peptide with fluorescent marker mRuby (EQEFEFEFEQE; not fully specified (C-terminus); also: fusion with mRuby, not in chain)", "values": [
      {"measurement": "delivery into cells via granules of three co-assembling peptides", "setting": "cells", "value": "delivered into cells"}
    ]},
    {"molecule": "CATCH(−)GFP: recombinant fusion of CATCH(−) and superfolder green fluorescent protein (GFP)", "values": [
      {"measurement": "delivery into cells via granules of three co-assembling peptides", "setting": "cells", "value": "delivered into cells"},
      {"measurement": "fluorescence of CATCH hydrogels after incubation under volumetric excess of 1×PBS", "setting": "[2]; 48 h, hydrogel from 12 mM CATCH(+) and CATCH(−)", "value": "retained their fluorescence"},
      {"measurement": "GFP in the buffer layer over hydrogels", "setting": "[2]; up to 48 h under excess 1×PBS", "value": "no GFP was detected"}
    ]},
    {"molecule": "KQKFKFKFKQK [CATCH(6+)]", "values": [
      {"measurement": "granule size by scanning electron microscopy at higher positive peptide concentrations", "setting": "[3]", "value": "larger granules"},
      {"measurement": "effect of titration of peptide concentration on number of transduced cells", "setting": "cells in vitro", "value": "enabled control on the number of transduced cells"}
    ]},
    {"molecule": "B1", "values": [
      {"measurement": "binding result", "setting": "[4]", "value": "no binding"}
    ]},
    {"molecule": "B2", "values": [
      {"measurement": "binding result", "setting": "[5]", "value": "no binding"},
      {"measurement": "binding result", "setting": "[6]", "value": "no binding"}
    ]},
    {"molecule": "B3", "values": [
      {"measurement": "binding result", "setting": "[7]", "value": "no binding"},
      {"measurement": "binding result", "setting": "[6]", "value": "no binding"}
    ]}
  ]
}
